# In article PMC3538678:
# Assays:
# [1] = molecular target: recombinant human laminin-521 (α5β2γ1) (human) (UniProt O15230)
# [2] = molecular target: recombinant human laminin-511 (α5β1γ1) (human) (UniProt O15230)
# [3] = molecular target: recombinant human laminin-521 (α5β2γ1) (human) (UniProt O15230); remark: listed apart in the source
# [4] = molecular target: recombinant human laminin-511 (α5β1γ1) (human) (UniProt O15230); remark: listed apart in the source
substance,measurement,setting,value
recombinant human α3β1 integrin (from UniProt P26006 33-1051; P05556 21-728) (receptor),"migration of carcinoma cells through membranes coated with rhLM521, cells/field",[1],198 cells/field
same,"migration of glioma cells through membranes coated with rhLM521, cells/field",[1],174 cells/field
same,"migration of melanoma cells through membranes coated with rhLM521, cells/field",[1],203 cells/field
same,"migration of carcinoma cells through membranes coated with rhLM511, cells/field",[2],190 cells/field
same,"migration of glioma cells through membranes coated with rhLM511, cells/field",[2],161 cells/field
same,"migration of melanoma cells through membranes coated with rhLM511, cells/field",[2],88 cells/field
same,"adhesion of BE melanoma cells to wells coated with rhLM521 (20 µg/ml), OD",[3],1.56 OD
same,"adhesion of KG1C glioma cells to wells coated with rhLM521 (20 µg/ml), OD",[3],1.39 OD
same,"adhesion of MDA-MB-231 breast carcinoma cells to wells coated with rhLM521 (20 µg/ml), OD",[3],1.85 OD
same,"adhesion of BE melanoma cells to wells coated with rhLM511 (20 µg/ml), OD",[4],1.65 OD
same,"adhesion of KG1C glioma cells to wells coated with rhLM511 (20 µg/ml), OD",[4],1.48 OD
same,"adhesion of MDA-MB-231 breast carcinoma cells to wells coated with rhLM511 (20 µg/ml), OD",[4],1.82 OD
